These results are taken from patent US20150299281A1 (ZEALAND PHARMA A S, published 2015).

Square brackets hold non-standard residues; d marks the D form. Aib = CC(C)(N)C(=O)O

For experiment [1], the target named is T1, human GIP receptor (human, UniProt P48546 22-466).
T1 sequence (looked up): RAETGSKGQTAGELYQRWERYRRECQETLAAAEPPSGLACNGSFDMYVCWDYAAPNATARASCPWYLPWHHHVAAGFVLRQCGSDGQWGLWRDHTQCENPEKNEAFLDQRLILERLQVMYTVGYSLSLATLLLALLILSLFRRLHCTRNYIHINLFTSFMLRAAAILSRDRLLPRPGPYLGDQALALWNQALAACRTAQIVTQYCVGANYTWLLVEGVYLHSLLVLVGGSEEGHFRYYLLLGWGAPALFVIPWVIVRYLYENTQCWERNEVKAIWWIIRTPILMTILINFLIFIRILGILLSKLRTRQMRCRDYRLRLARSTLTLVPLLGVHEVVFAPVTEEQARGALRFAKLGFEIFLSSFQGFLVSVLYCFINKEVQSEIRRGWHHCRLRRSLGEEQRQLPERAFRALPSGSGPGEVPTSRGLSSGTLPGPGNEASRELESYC
The experiment is described as follows: cell-based or functional assay.

In experiment [2] the target is human GLP-1 receptor (human, UniProt P43220 24-463). The experiment is described as follows: cell-based or functional assay.

B1: Compound 2 (peptide)
peptide: H-Y[Aib]EGTFTSDYSI[Aib]LDKKAQRAFVEWLLAQGPSSGAPPPS-NH2
SMILES: CC[C@H](C)[C@H](NC(=O)[C@H](CO)NC(=O)[C@H](Cc1ccc(O)cc1)NC(=O)[C@H](CC(=O)O)NC(=O)[C@H](CO)NC(=O)[C@@H](NC(=O)[C@H](Cc1ccccc1)NC(=O)[C@@H](NC(=O)CNC(=O)[C@H](CCC(=O)O)NC(=O)C(C)(C)NC(=O)[C@@H](N)Cc1ccc(O)cc1)[C@@H](C)O)[C@@H](C)O)C(=O)NC(C)(C)C(=O)N[C@@H](CC(C)C)C(=O)N[C@@H](CC(=O)O)C(=O)N[C@@H](CCCCN)C(=O)N[C@@H](CCCCN)C(=O)N[C@@H](C)C(=O)N[C@@H](CCC(N)=O)C(=O)N[C@@H](CCCNC(=N)N)C(=O)N[C@@H](C)C(=O)N[C@@H](Cc1ccccc1)C(=O)N[C@H](C(=O)N[C@@H](CCC(=O)O)C(=O)N[C@@H](Cc1c[nH]c2ccccc12)C(=O)N[C@@H](CC(C)C)C(=O)N[C@@H](CC(C)C)C(=O)N[C@@H](C)C(=O)N[C@@H](CCC(N)=O)C(=O)NCC(=O)N1CCC[C@H]1C(=O)N[C@@H](CO)C(=O)N[C@@H](CO)C(=O)NCC(=O)N[C@@H](C)C(=O)N1CCC[C@H]1C(=O)N1CCC[C@H]1C(=O)N1CCC[C@H]1C(=O)N[C@@H](CO)C(N)=O)C(C)C
For B1, the “EC50, cAMP induction in HEK293 cells expressing human GIP R” value in experiment [1] is 0.0068 nM. Besides, the “EC50, cAMP induction in HEK293 cells expressing human GLP-1 R” value in experiment [2] amounted to 0.015 nM.

B2: Compound 19 (peptide)
peptide: H-Y[Aib]EGTFTSDYSIYLDKKAQKEFVNWLLA[Aib]K-NH2
SMILES: CC[C@H](C)[C@H](NC(=O)[C@H](CO)NC(=O)[C@H](Cc1ccc(O)cc1)NC(=O)[C@H](CC(=O)O)NC(=O)[C@H](CO)NC(=O)[C@@H](NC(=O)[C@H](Cc1ccccc1)NC(=O)[C@@H](NC(=O)CNC(=O)[C@H](CCC(=O)O)NC(=O)C(C)(C)NC(=O)[C@@H](N)Cc1ccc(O)cc1)[C@@H](C)O)[C@@H](C)O)C(=O)N[C@@H](Cc1ccc(O)cc1)C(=O)N[C@@H](CC(C)C)C(=O)N[C@@H](CC(=O)O)C(=O)N[C@@H](CCCCN)C(=O)N[C@@H](CCCCN)C(=O)N[C@@H](C)C(=O)N[C@@H](CCC(N)=O)C(=O)N[C@@H](CCCCN)C(=O)N[C@@H](CCC(=O)O)C(=O)N[C@@H](Cc1ccccc1)C(=O)N[C@H](C(=O)N[C@@H](CC(N)=O)C(=O)N[C@@H](Cc1c[nH]c2ccccc12)C(=O)N[C@@H](CC(C)C)C(=O)N[C@@H](CC(C)C)C(=O)N[C@@H](C)C(=O)NC(C)(C)C(=O)N[C@@H](CCCCN)C(N)=O)C(C)C
Turning to B2, the “EC50, cAMP induction in HEK293 cells expressing human GIP R” value in experiment [1] stood at 0.015 nM. For the same molecule, in experiment [2], the “EC50, cAMP induction in HEK293 cells expressing human GLP-1 R” value stood at 0.0073 nM.

B3: Compound 21 (peptide)
peptide: H-Y[Aib]EGTFTSDYSIYLDKKAQRAFVNWLVA[Aib]K-NH2
SMILES: CC[C@H](C)[C@H](NC(=O)[C@H](CO)NC(=O)[C@H](Cc1ccc(O)cc1)NC(=O)[C@H](CC(=O)O)NC(=O)[C@H](CO)NC(=O)[C@@H](NC(=O)[C@H](Cc1ccccc1)NC(=O)[C@@H](NC(=O)CNC(=O)[C@H](CCC(=O)O)NC(=O)C(C)(C)NC(=O)[C@@H](N)Cc1ccc(O)cc1)[C@@H](C)O)[C@@H](C)O)C(=O)N[C@@H](Cc1ccc(O)cc1)C(=O)N[C@@H](CC(C)C)C(=O)N[C@@H](CC(=O)O)C(=O)N[C@@H](CCCCN)C(=O)N[C@@H](CCCCN)C(=O)N[C@@H](C)C(=O)N[C@@H](CCC(N)=O)C(=O)N[C@@H](CCCNC(=N)N)C(=O)N[C@@H](C)C(=O)N[C@@H](Cc1ccccc1)C(=O)N[C@H](C(=O)N[C@@H](CC(N)=O)C(=O)N[C@@H](Cc1c[nH]c2ccccc12)C(=O)N[C@@H](CC(C)C)C(=O)N[C@H](C(=O)N[C@@H](C)C(=O)NC(C)(C)C(=O)N[C@@H](CCCCN)C(N)=O)C(C)C)C(C)C
Take B3: the “EC50, cAMP induction in HEK293 cells expressing human GIP R” value in experiment [1] came out at 0.08 nM. In experiment [2], the “EC50, cAMP induction in HEK293 cells expressing human GLP-1 R” value was 0.009 nM.

B4: Compound 17 (peptide)
peptide: H-Y[Aib]EGTFTSDYSIYLDEKAQRAFVNWLLA[Aib]K-NH2
SMILES: CC[C@H](C)[C@H](NC(=O)[C@H](CO)NC(=O)[C@H](Cc1ccc(O)cc1)NC(=O)[C@H](CC(=O)O)NC(=O)[C@H](CO)NC(=O)[C@@H](NC(=O)[C@H](Cc1ccccc1)NC(=O)[C@@H](NC(=O)CNC(=O)[C@H](CCC(=O)O)NC(=O)C(C)(C)NC(=O)[C@@H](N)Cc1ccc(O)cc1)[C@@H](C)O)[C@@H](C)O)C(=O)N[C@@H](Cc1ccc(O)cc1)C(=O)N[C@@H](CC(C)C)C(=O)N[C@@H](CC(=O)O)C(=O)N[C@@H](CCC(=O)O)C(=O)N[C@@H](CCCCN)C(=O)N[C@@H](C)C(=O)N[C@@H](CCC(N)=O)C(=O)N[C@@H](CCCNC(=N)N)C(=O)N[C@@H](C)C(=O)N[C@@H](Cc1ccccc1)C(=O)N[C@H](C(=O)N[C@@H](CC(N)=O)C(=O)N[C@@H](Cc1c[nH]c2ccccc12)C(=O)N[C@@H](CC(C)C)C(=O)N[C@@H](CC(C)C)C(=O)N[C@@H](C)C(=O)NC(C)(C)C(=O)N[C@@H](CCCCN)C(N)=O)C(C)C
B4: the “EC50, cAMP induction in HEK293 cells expressing human GIP R” value in experiment [1] is 0.021 nM. Moreover, in experiment [2], the “EC50, cAMP induction in HEK293 cells expressing human GLP-1 R” value was 0.0074 nM.

B5: Compound 18 (peptide)
peptide: H-Y[Aib]EGTFTSDYSIYLDSKAKRAFVNWLLA[Aib]K-NH2
SMILES: CC[C@H](C)[C@H](NC(=O)[C@H](CO)NC(=O)[C@H](Cc1ccc(O)cc1)NC(=O)[C@H](CC(=O)O)NC(=O)[C@H](CO)NC(=O)[C@@H](NC(=O)[C@H](Cc1ccccc1)NC(=O)[C@@H](NC(=O)CNC(=O)[C@H](CCC(=O)O)NC(=O)C(C)(C)NC(=O)[C@@H](N)Cc1ccc(O)cc1)[C@@H](C)O)[C@@H](C)O)C(=O)N[C@@H](Cc1ccc(O)cc1)C(=O)N[C@@H](CC(C)C)C(=O)N[C@@H](CC(=O)O)C(=O)N[C@@H](CO)C(=O)N[C@@H](CCCCN)C(=O)N[C@@H](C)C(=O)N[C@@H](CCCCN)C(=O)N[C@@H](CCCNC(=N)N)C(=O)N[C@@H](C)C(=O)N[C@@H](Cc1ccccc1)C(=O)N[C@H](C(=O)N[C@@H](CC(N)=O)C(=O)N[C@@H](Cc1c[nH]c2ccccc12)C(=O)N[C@@H](CC(C)C)C(=O)N[C@@H](CC(C)C)C(=O)N[C@@H](C)C(=O)NC(C)(C)C(=O)N[C@@H](CCCCN)C(N)=O)C(C)C
For B5, in experiment [1], the “EC50, cAMP induction in HEK293 cells expressing human GIP R” value is 0.36 nM. The “EC50, cAMP induction in HEK293 cells expressing human GLP-1 R” value in experiment [2] came to 0.015 nM.

B6: Compound 20 (peptide)
peptide: H-Y[Aib]EGTFTSDYSIYLDKKAQRAFVKWLLA[Aib]K-NH2
SMILES: CC[C@H](C)[C@H](NC(=O)[C@H](CO)NC(=O)[C@H](Cc1ccc(O)cc1)NC(=O)[C@H](CC(=O)O)NC(=O)[C@H](CO)NC(=O)[C@@H](NC(=O)[C@H](Cc1ccccc1)NC(=O)[C@@H](NC(=O)CNC(=O)[C@H](CCC(=O)O)NC(=O)C(C)(C)NC(=O)[C@@H](N)Cc1ccc(O)cc1)[C@@H](C)O)[C@@H](C)O)C(=O)N[C@@H](Cc1ccc(O)cc1)C(=O)N[C@@H](CC(C)C)C(=O)N[C@@H](CC(=O)O)C(=O)N[C@@H](CCCCN)C(=O)N[C@@H](CCCCN)C(=O)N[C@@H](C)C(=O)N[C@@H](CCC(N)=O)C(=O)N[C@@H](CCCNC(=N)N)C(=O)N[C@@H](C)C(=O)N[C@@H](Cc1ccccc1)C(=O)N[C@H](C(=O)N[C@@H](CCCCN)C(=O)N[C@@H](Cc1c[nH]c2ccccc12)C(=O)N[C@@H](CC(C)C)C(=O)N[C@@H](CC(C)C)C(=O)N[C@@H](C)C(=O)NC(C)(C)C(=O)N[C@@H](CCCCN)C(N)=O)C(C)C
For B6, the “EC50, cAMP induction in HEK293 cells expressing human GIP R” value in experiment [1] was found to be 0.049 nM. The “EC50, cAMP induction in HEK293 cells expressing human GLP-1 R” value in experiment [2] stood at 0.009 nM.

B7: Compound 23 (peptide)
peptide: H-Y[Aib]EGTFTSDYSIYLDKKAQRAFVNWLKA[Aib]K-NH2
SMILES: CC[C@H](C)[C@H](NC(=O)[C@H](CO)NC(=O)[C@H](Cc1ccc(O)cc1)NC(=O)[C@H](CC(=O)O)NC(=O)[C@H](CO)NC(=O)[C@@H](NC(=O)[C@H](Cc1ccccc1)NC(=O)[C@@H](NC(=O)CNC(=O)[C@H](CCC(=O)O)NC(=O)C(C)(C)NC(=O)[C@@H](N)Cc1ccc(O)cc1)[C@@H](C)O)[C@@H](C)O)C(=O)N[C@@H](Cc1ccc(O)cc1)C(=O)N[C@@H](CC(C)C)C(=O)N[C@@H](CC(=O)O)C(=O)N[C@@H](CCCCN)C(=O)N[C@@H](CCCCN)C(=O)N[C@@H](C)C(=O)N[C@@H](CCC(N)=O)C(=O)N[C@@H](CCCNC(=N)N)C(=O)N[C@@H](C)C(=O)N[C@@H](Cc1ccccc1)C(=O)N[C@H](C(=O)N[C@@H](CC(N)=O)C(=O)N[C@@H](Cc1c[nH]c2ccccc12)C(=O)N[C@@H](CC(C)C)C(=O)N[C@@H](CCCCN)C(=O)N[C@@H](C)C(=O)NC(C)(C)C(=O)N[C@@H](CCCCN)C(N)=O)C(C)C
As for B7, the “EC50, cAMP induction in HEK293 cells expressing human GIP R” value in experiment [1] turned out to be 0.42 nM. Besides, the “EC50, cAMP induction in HEK293 cells expressing human GLP-1 R” value in experiment [2] worked out at 0.012 nM.
